The values that follow are results of earlier work, collected in paper PMC2728785 (Biomaterials, 2009).

The conditions of data set [1]: versus unmodified bovine hemoglobin.

Take “12 copies of a 5 kDa PEG conjugated to bovine hemoglobin: PEGylated bovine hemoglobin from the literature”: in data set [1], the “increase of blood half-life” value is 14 factor and the “increase of systemic availability” value is 8 factor. Consider `CC(C)(S)CN` [1-amino-2-methyl-2-propanethiol], for which the “degradation rate relative to the less hindered cysteamine linker” value (disulfide bond prepared from the sterically hindered linker) is on record as “about 100 times slower”. `NCCS` [cysteamine linker, cysteamine]: the “t1/2 of GSH-dependent disulfide degradation” value (disulfide bond prepared from the linker) is reported as 3 min.
